Data from patent US20040265295.

Key:
[1] = tested on: His-PIPKIγ661 C-terminus (439-661) Tyr644 to Phe mutant
[2] = tested on: His-PIPKIγ661 C-terminus (439-661) Tyr644/649 to Phe mutant
[3] = tested on: His-PIPKIγ661 C-terminus (439-661) Tyr649 to Phe mutant
[4] = tested on: His-PIPKIγ661 C-terminus, wild-type (439-661)
Sequence of His-PIPKIγ661 C-terminus, wild-type (439-661) (chain, as listed by the source): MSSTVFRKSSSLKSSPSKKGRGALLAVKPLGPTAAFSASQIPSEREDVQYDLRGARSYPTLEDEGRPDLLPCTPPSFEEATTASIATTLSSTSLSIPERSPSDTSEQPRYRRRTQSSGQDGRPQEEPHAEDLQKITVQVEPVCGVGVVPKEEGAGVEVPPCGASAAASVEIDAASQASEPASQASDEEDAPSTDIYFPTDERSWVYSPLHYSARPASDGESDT

Sequence of His-PIPKIγ661 C-terminus (439-661) Tyr644/649 to Phe mutant (chain, as listed by the source mutant): as the sequence (chain, as listed by the source) above, with Y206F, Y211F counted along it
Sequence of His-PIPKIγ661 C-terminus (439-661) Tyr644 to Phe mutant (chain, as listed by the source mutant): as the sequence (chain, as listed by the source) above, with Y206F counted along it
Sequence of His-PIPKIγ661 C-terminus (439-661) Tyr649 to Phe mutant (chain, as listed by the source mutant): as the sequence (chain, as listed by the source) above, with Y211F counted along it

Substance: c-SrcTyr527Phe
- in vitro kinase assay, phosphorylation of the recombinant substrate [1]: not efficiently phosphorylated by c-Src in vitro compared with wild-type
- in vitro kinase assay, phosphorylation of the recombinant substrate [2]: not efficiently phosphorylated by c-Src in vitro compared with wild-type
- in vitro kinase assay, phosphorylation of the recombinant substrate [3]: PIPKIγTyr^649->Phe is efficiently phosphorylated by c-Src
- in vitro kinase assay, phosphorylation of the recombinant substrate [4]: c-Src directly phosphorylated recombinant PIPKIγ661 tail
